# Results published in the supplement of paper PMC9732359.
# ± gives the uncertainty stated by the source.
# Test: protein stability index of a GFP-peptide fusion (yeast GPS) (PSI 1-4); higher = more stable; sorted into four equal gates, so the index is relative within each strain
# Details: doa10∆
# Summary of the method: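 Tiled 17-residue peptides from yeast proteins were fused downstream of GFP on a plasmid that also expresses Cherry, and the pooled library was carried in yeast. Mid-log cultures grown in leucine-free medium were sorted into four equal gates by GFP/Cherry fluorescence ratio. Plasmids from each gate were PCR-amplified and Illumina-sequenced, and reads were assigned to strains by barcodes. Each peptide's protein stability index is the sum, over gates, of the gate's read frequency multiplied by its gate number.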
row,Sequence,protein stability index
1,SLKNVTEKNREIYKQLN [YIL149C/MLP2],3.31 ± 0.097
2,SLKTKLNSNIRAGVTIP [SNF5],2.6 ± 0.077

# Same assay, conditions: pdr5∆
row,Sequence,protein stability index
1,SAEDEENIIQRLQAANS [CDC53],3.4 ± 0.066
2,SAETLSELIRTTLDAEK [FAS1],2.73 ± 0.046
3,SAGRLYACISSRPGQSG [RPS8A],3.07 ± 0.093
4,SAILLSETDKRQFLHEL [RPO31],2.49 ± 0.051
5,SALCILKEQELVLYDAE [BRR2],2.72 ± 0.12
6,SANPKKTTITRVEPETF [SWI3],3.06 ± 0.068
7,SAQSIASAKSVRSGVSK [YAR002W/NUP60],2.93 ± 0.092
8,SASNTAKSTPNTNPSPL [GAL11],2.87 ± 0.042
9,SASRAKNMPVIYNNIVS [RGR1],2.26 ± 0.064
10,SATLPNYEDVGRFLRVP [BRR2],3.1 ± 0.062
11,SAVLLETTLGEMAEKID [PRP8],1.55 ± 0.098
12,SAVVSSNASRRKLINYT [RPN4],2.53 ± 0.14
13,SCEVEEIGLLGGRYVYP [SNU114],3.04 ± 0.066
14,SCGYPAAKTRSYNWGAK [RPL37A],3.34 ± 0.12
15,SCLTFFQALDSEETQFK [ITC1],3.49 ± 0.13
16,SCQGNVIYRNSLYKVSF [YMR129W/POM152],2.76 ± 0.068
17,SCRNPEHTDVIDELIDT [YIL149C/MLP2],2.76 ± 0.061
18,SCTKCPQIVVPDAQNEL [DIS3],2.42 ± 0.04
19,SDAAKEPPGSNTSFSFT [YOR098C/NUP1],1.96 ± 0.048
20,SDAKEQHQSLSRSSSKN [ESC2],3.21 ± 0.14
21,SDAVMAEHSQNKIDQSL [YJL041W/NSP1],3.18 ± 0.044
22,SDDAAQFMKRFPMPYEN [ECM29],3 ± 0.14
23,SDEAIIPVNKRRGAHGS [SIR3],3.13 ± 0.13
24,SDKAQLNVVMKNLERLR [SMC4],3.46 ± 0.15
25,SDLRVLSGSISERIVDC [FAS1],3.45 ± 0.15

row,Sequence,protein stability index
1,SDMQHIERLLKDLVTEN [PRE4],2.61 ± 0.13
2,SDSEIPPLLVYKWTQGI [PRP8],2.36 ± 0.057
3,SEEERKSSPISNEAAKP [YOR098C/NUP1],2.97 ± 0.099
4,SEFDSRVKAMEVDEKPT [RPT5],2.76 ± 0.089
5,SEIIDTNTSKQFQKARN [SRB8],3.01 ± 0.063
6,SEKGLLSATQFTQPALT [FAS1],2.65 ± 0.047
7,SEKRLDHFIHLRNLHMK [SNF12],2.73 ± 0.043
8,SELLGGTFKSTLDREYI [QCR2],3.17 ± 0.11
9,SERIVDCIIRLPVKWET [FAS1],1.97 ± 0.083
10,SETADETLENNIVSVLT [RPN11],2.94 ± 0.076
11,SETQTKDENNTANDQYS [YCG1],3.15 ± 0.056
12,SEYMVFGKLAFPTRLGQ [YJL039C/NUP192],2.52 ± 0.062
13,SFEKLYEGMKLGNHAIT [YMR129W/POM152],1.47 ± 0.27
14,SFFSGLSPPEFLFHAIS [RPO31],1.9 ± 0.05
15,SFFVSVRKAITVLFFIG [FAS1],1.34 ± 0.11
16,SFIINFISNLPNVSDKY [NUT1],1.91 ± 0.07
17,SFNCENFFQAPQDYVLE [YML031W/NDC1],3.06 ± 0.082
18,SFNVKENQPFHGIKDIP [AAR2],3.17 ± 0.19
19,SFQLSKIRRAARDLLTR [RPS9A],2.24 ± 0.044
20,SFSFSIPSKNTPDASKP [YLR335W/NUP2],2.45 ± 0.042
21,SFTFASSKTSQPKPLFS [YOR098C/NUP1],2.44 ± 0.035
22,SFTPSTVPNINFSGLNG [YOR098C/NUP1],2.68 ± 0.068
23,SFVLNKNTIDFERFPSP [RPN4],2.66 ± 0.058
24,SGAYSYPDFRHYGLAVD [DIS3],2.56 ± 0.056
25,SGDRLTRASKVLEQLSG [RPL11A],3.12 ± 0.13

row,Sequence,protein stability index
1,SGEEKGKKVSGFKDEVL [RPS1B],3.61 ± 0.14
2,SGFYTFSLLDHHYRPDM [PRE1],3.1 ± 0.28
3,SGGLFGNQQQQLQQQPQ [YGL172W/NUP49],2.61 ± 0.15
4,SGIVASPAVKKLLQLAG [RPS2],1.66 ± 0.14
5,SGKITDFIKFDAGKLVY [RPS4A],2.92 ± 0.061
6,SGLMVILYTSKIVFILD [RRI2],1.81 ± 0.049
7,SHAIRLGNGVACDPSEI [RGR1],1.64 ± 0.089
8,SHFSPDIKAAVDDSMEL [ITC1],2.44 ± 0.12
9,SIKNNVAMCFVINKLDR [SNU114],1.91 ± 0.12
10,SIKSQKEEISDQKPIEH [SWI3],2.98 ± 0.055
11,SILESSMFLRIDYSNSQ [RGR1],2.14 ± 0.064
12,SILKRHSFAVLLHERKL [NUT1],2.13 ± 0.078
13,SISGFKEALLGQLLKDH [ARP9],2.29 ± 0.092
14,SISSVVSEDLLDERGHE [RPN4],2.99 ± 0.096
15,SITLQGDVYDPEGTLSG [SMC2],2.6 ± 0.13
16,SIVNICDIQEEQVDITA [PUP1],2.91 ± 0.16
17,SKDEPVSKAVESKSLLN [SIR4],2.82 ± 0.091
18,SKESWRYDWYQPSKVSS [RTT102],2.33 ± 0.098
19,SKFTKIPPTFDKGAVGP [MED4],3.29 ± 0.079
20,SKGYPIQFLTIGAGVPS [FAS1],1.64 ± 0.045
21,SKIRKIHIQETQEFSKN [SIR3],3.08 ± 0.15
22,SKKAEKTGTKPAAVFTE [RPL4A],2.79 ± 0.085
23,SKKDFKIIDNPKSFLKK [YMR129W/POM152],3.35 ± 0.095
24,SKKKKNIKKKDTKDALS [RPC53],3.5 ± 0.14
25,SKKRFAAIWTLCKTKMV [RPO21],1.53 ± 0.049

row,Sequence,protein stability index
1,SKKRKLNSLTNLLSKRN [SNM1],2.99 ± 0.059
2,SKKVLECLPAEGHDWKA [DIS3],1.69 ± 0.13
3,SKKYQLADWRIRPLSKP [RRP6],1.83 ± 0.048
4,SKLAEEKIRAAGGVVEL [RPL28],3.08 ± 0.034
5,SKNPLSLTEATKTNVDN [YLR335W/NUP2],3.01 ± 0.069
6,SKRVYKILSPTMYMEVY [CDC53],2.68 ± 0.098
7,SKSAFSFGSKPTGKEEG [YJL041W/NSP1],3.34 ± 0.052
8,SKSDSDSEERDPKLEKC [ITC1],2.97 ± 0.13
9,SKSGRIFALVFSSNERY [RPN13],2.74 ± 0.086
10,SKTDNIEDPNLSSNITF [YMR153W/NUP53],2.81 ± 0.08
11,SKVASSLVIIILVKRYS [ECM29],1.44 ± 0.042
12,SKVQFDAKTSYPNEVLK [REC8],3.08 ± 0.072
13,SKVREEVGDVCINELDN [RPO31],2.32 ± 0.06
14,SKVTKKHGAKKVAKRTK [RPL27B],3.02 ± 0.2
15,SKVYFNNQSKEKADYED [RPN12],2.64 ± 0.067
16,SKVYYNLGEYESAVKYA [RPN2],2.9 ± 0.093
17,SKYFIIDSFFLYVLPSF [YMR129W/POM152],1.65 ± 0.035
18,SLADNEIALKGLESLLN [YCS4],2.5 ± 0.067
19,SLAPEADLDSLIIRNDS [RPT3],3.01 ± 0.08
20,SLDSCTAAFTAMICEAK [YJR042W/NUP85],2.51 ± 0.11
21,SLEHELKRSTELLETVS [YIL149C/MLP2],2.21 ± 0.054
22,SLFGSIGDDGYDLLIST [SRB5],2.07 ± 0.14
23,SLGDGTNYYLTTARNDL [CSL4],2.71 ± 0.068
24,SLGHQTSLITAVYGPRS [MTR3],2.24 ± 0.056
25,SLHTKNVFGTLQRHSGI [YLR018C/POM34],2.5 ± 0.071
